This is an account of results in patent US20230405078A1, “DETECTION AND TREATMENT OF INTESTINAL FIBROSIS” (THE REGENTS OF THE UNIVERSITY OF CALIFORNIA, priority 2020, published 2023).

Data set [1] concerns Salmonella-infected mice. Description: Salmonella-mediated cecal fibrosis in mice. The data set is classed as in vivo. The settings on record: Salmonella model. As for the experimental part: Eight-week-old male and female 129Sv/J mice (#000691, Jackson Laboratories) were administered 20 mg streptomycin via oral gavage. Twenty-four hours later, the mice were orally infected with Salmonella typhimurium SL1344 strain 1×10^8 colony-forming units by oral gavage to induce cecal fibrosis.
Origene or miR205-5p-OFF lentivrus (mm35328) or miR205-5p-OE lentivirus (mm15214) from Applied Biological Materials on day 14. Some infected mice received oral antibiotics mixture in drinking water ad libitum from day 14 to day 21 to suppress intestinal microbiota. […]
H&E and Masson Trichrome (MT) staining were performed as described previously. Microphotographs were recorded at multiple locations and scored by two investigators blindly. Intestinal injuries were scored (0-12). The severity of intestinal fibrosis was assessed by MT staining and scored (0-3). […]
Total RNA was isolated by an RNeasy kit (#74104, Qiagen) and reverse transcribed into cDNA by a high-capacity cDNA reverse transcription kit (#4368813, ThermoFisher). […] Relative mRNA/miRNA quantification was performed by comparing test groups and control groups after normalization with endogenous control genes. The fold changes are expressed as 2^ΔΔCt. […]
Overall disease activity (ODA) was calculated by % change of histology and fibrosis scores and colonic mRNA expression of fibrosis- and inflammation-related genes. […]

For data set [2] the following is noted: cited from earlier work.
Data set [3] deals with 3T3-L1 adipocytes. Description: Lipid accumulation and gene expression in 3T3-L1 adipocytes. It counts as cell-based, mouse. The settings on record: 24-h; elafin 10 ng/ml, miRNA mimics 75 ng/ml. The text has this: FIG. 34. Immune cell-derived miR181b-5p and miR219-5p induced leptin mRNA expression in 3T3-L1 adipocytes. (A) Mouse serum exosomal miRNA expression was profiled by a PCR array. miR219-5p, miR210-3p, and miR181-5p were undetectable in the serum exosomes of HFD-treated mice without elafin overexpression. These three miRNAs were detected in the serum exosomes of elafin-overexpressing HFD-treated mice only. Each group consists of 6 mice. […] (C) The positive correlation between serum elafin levels and miRNAs (miR181b-5p and miR210-3p, but not miR219-5p) in the men with T2DM. […]
Cell culture experiments. […] Adipocyte lipid accumulation was determined using Oil Red O staining, as described previously.
Quantitative real-time reverse transcription-polymerase chain reaction (RT-PCR) and miRNA PCR array. […] Quantitative PCR reactions were run with Fast Universal PCR master mix (#4352042, ThermoFisher) in a Bio-Rad CFX384 using cataloged primers (ThermoFisher) for human elafin (Hs00160066_m1), human leptin (Hs00174877_m1), mouse Cd36 (Mm00432403_m1), mouse adiponectin (Mm00456425_m1), mouse leptin (Mm00434759_m1), and mouse Tnf (Mm00443258_m1). Relative mRNA quantification was performed by comparing test groups and control group, after normalization with endogenous control gene human 18S (Hs99999901_s1) or mouse Gapdh (Mm99999915_g1).

Entries after “also recorded” stand apart in the source; their conditions may differ.

“Elafin: small (6 kDa) human elastase-specific protease inhibitor and antimicrobial peptide; active form SEQ ID NO: 2 (AQEPVKGPVSTKPGSCPIILIRCAMLNPPNRCLKDTDCPGIKKCCEGSCGMACFVPQ; listed as Homo sapiens)” gave an overall disease activity in data set [1] of 29%. Besides, the “increase of plasma concentration” value in data set [2] (200 mg/person intravenous) is listed as over 3000 fold. Also, in data set [2] (200 mg/person), the “adverse effects / tolerability” value was “does not cause any adverse effects; also recorded: well tolerated”. The “lipid accumulation; Cd36 and adiponectin mRNA expression” value in data set [3] was “affected neither”.
